Experimental findings from the supplement of paper PMC10567573 are described below.

± gives the standard deviation.

The nature of this data set: protein stability index of a GFP-peptide fusion (GPS, HEK-293T) (PSI 1-6); higher = more stable. As to conditions: c terminus: a fixed tail appended.
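Further: 24-mer peptide tiles fused after GFP, lentivirally expressed, FACS-sorted into six equal bins by GFP/DsRed ratio, decoded by Illumina sequencing, PSI is the read-weighted mean bin number.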

For the sequence APVPEPPKEEQQQALEQFAAAAAH [EPB41L3], the protein stability index (treatment: DMSO) was determined as 5.54 ± 0.21 and the protein stability index (treatment: MLN4924 1 uM, 8 h) is 5.56 ± 0.17.

Turning to AQMSTLHVSPPPSADPARGLPRSR [PDLIM4], the protein stability index is, setting by setting: (treatment: DMSO) 4.79 ± 0.2; (treatment: MLN4924 1 uM, 8 h) 4.86 ± 0.13.

The sequence ARELAITDSEHSDAEVSCTDNGTF [RETREG3] gave a protein stability index (treatment: DMSO) of 5.56 ± 0.28 and a protein stability index (treatment: MLN4924 1 uM, 8 h) of 5.592 ± 0.033.

For ARLTGVNDKMAEYTNSAGVPSLNA [GOSR1], the protein stability index reads like this: (treatment: DMSO) 3.83 ± 0.22; (treatment: MLN4924 1 uM, 8 h) 4.01 ± 0.16.

For the sequence ARQAACCVARPGTPSLLRFALASL [ZSWIM9], the protein stability index (treatment: DMSO) was found to be 2.33 ± 0.17 and the protein stability index (treatment: MLN4924 1 uM, 8 h) worked out at 2.43 ± 0.32.

In the case of ASFDRRGEYIYTGNAKGKILVLKT [RBBP5], the protein stability index was 2.02 ± 0.19 (treatment: DMSO) and 2.29 ± 0.32 (treatment: MLN4924 1 uM, 8 h).

As to ASGQSYSSREVFTSSSSSSSRQTR [KRT16], the protein stability index is 4.84 ± 0.15 (treatment: DMSO) and 4.8 ± 0.21 (treatment: MLN4924 1 uM, 8 h).

With ASSGQHHDFLSDLFSDDYGGKNCK [CEBPB], the protein stability index was found to be 4.54 ± 0.35 (treatment: DMSO) and 4.66 ± 0.45 (treatment: MLN4924 1 uM, 8 h).

As for ATAFSKLKPESSQQPGQDALAVKA [ZBED1], the protein stability index was determined as 4.8 ± 0.5 (treatment: DMSO) and 5.21 ± 0.12 (treatment: MLN4924 1 uM, 8 h).

In the case of ATAVGGGFFLLQLANHTGYIKVDW [FUNDC2], the protein stability index by setting is: (treatment: DMSO) 3.27 ± 0.8; (treatment: MLN4924 1 uM, 8 h) 3.08 ± 0.47.

For the sequence ATIENAQPILQIDNARLAADDFRT [KRT16], the protein stability index is, setting by setting: (treatment: DMSO) 4.41 ± 0.17; (treatment: MLN4924 1 uM, 8 h) 4.52 ± 0.16.

Turning to AVAAATAAVEGSGGSGGGSHHHHQ [KCNA4], the protein stability index by setting is: (treatment: DMSO) 5.04 ± 0.33; (treatment: MLN4924 1 uM, 8 h) 5.07 ± 0.35.

As to AWDNPAYSGPPSPHGTLRVCTISS [PKD2L1], the protein stability index is, setting by setting: (treatment: DMSO) 2.93 ± 0.31; (treatment: MLN4924 1 uM, 8 h) 3.05 ± 0.37.

In the case of AWMLCKLLDKAGVPPGVVNIVFGT [ALDH8A1], the protein stability index was 2.642 ± 0.019 (treatment: DMSO) and 2.77 ± 0.51 (treatment: MLN4924 1 uM, 8 h).

For AYLVTVRGNLSILAAVLVEPKLHT [OR3A1], the protein stability index (treatment: DMSO) stood at 3.21 ± 0.75 and the protein stability index (treatment: MLN4924 1 uM, 8 h) worked out at 2.71 ± 0.68.

Turning to AYVAMIPQCIKEEDTPSDNDSGIC [ATF4], the protein stability index runs as follows: (treatment: DMSO) 4.25 ± 0.41; (treatment: MLN4924 1 uM, 8 h) 4.46 ± 0.26.

For the sequence CAPYDSRLLGSARPELGAALGIYG [IRX6], the protein stability index by setting is: (treatment: DMSO) 2.56 ± 0.37; (treatment: MLN4924 1 uM, 8 h) 2.13 ± 0.55.

In the case of CCCCYQSKSLMTSVPMNGTSIQWK [EDNRA], the protein stability index runs as follows: (treatment: DMSO) 2.2 ± 0.26; (treatment: MLN4924 1 uM, 8 h) 2.39 ± 0.31.

On to CEPPSYRPMHHEDFKEDLKKFRTK [CDC25A], for which the protein stability index is, setting by setting: (treatment: DMSO) 4.89 ± 0.31; (treatment: MLN4924 1 uM, 8 h) 4.93 ± 0.28.

Consider CGKAFYKKYRLTEHERAHRGEKPH [ZNF649], for which the protein stability index (treatment: DMSO) came out at 3.03 ± 0.33 and the protein stability index (treatment: MLN4924 1 uM, 8 h) came out at 3.18 ± 0.18.

Take CHGMSSQLVRYSADGLLQLGPLGS [GALNT9]: the protein stability index (treatment: DMSO) was 2.32 ± 0.3 and the protein stability index (treatment: MLN4924 1 uM, 8 h) is 2.12 ± 0.21.

As to CILLSALGYLLLGAATNVFLFVLA [MFSD9], the protein stability index is, setting by setting: (treatment: DMSO) 2.53 ± 0.45; (treatment: MLN4924 1 uM, 8 h) 2.77 ± 0.27.

In the case of CLDPIIYFFLCQPFREILCKKLHI [P2RY14], the protein stability index is 2.74 ± 0.2 (treatment: DMSO) and 3.252 ± 0.02 (treatment: MLN4924 1 uM, 8 h).

In the case of CLLTYGMTSSSAYYYTKVMSELFL [PKD2L1], the protein stability index was found to be 3.23 ± 0.41 (treatment: DMSO) and 2.83 ± 0.73 (treatment: MLN4924 1 uM, 8 h).

CNPLRYSVLMGHGVCMGLVAAACA [OR10K2]: the protein stability index worked out at 3.37 ± 0.59 (treatment: DMSO) and 2.83 ± 0.3 (treatment: MLN4924 1 uM, 8 h).

CPATWGPSVEQAADSLDFDETFLA [FOXJ1]: the protein stability index runs as follows: (treatment: DMSO) 4.56 ± 0.15; (treatment: MLN4924 1 uM, 8 h) 4.61 ± 0.064.

In the case of CQYLMATFVNVYIASFIRGPNPSK [CDS2], the protein stability index by setting is: (treatment: DMSO) 3.67 ± 0.3; (treatment: MLN4924 1 uM, 8 h) 3.4 ± 0.45.

Take CRAPPPEARGIRAPPLPDSPQPLA [FCHO1]: the protein stability index is 4.2 ± 0.6 (treatment: DMSO) and 4.3 ± 0.22 (treatment: MLN4924 1 uM, 8 h).

Take CRELGYVEAKSWTASSSYGKGEGP [LOXL2]: the protein stability index came out at 3.44 ± 0.41 (treatment: DMSO) and 3.45 ± 0.37 (treatment: MLN4924 1 uM, 8 h).

In turn, CSVHYVSDSGDGVYAGRPLSVIQM [FBXO34] came in with a protein stability index (treatment: DMSO) of 2.37 ± 0.78 and a protein stability index (treatment: MLN4924 1 uM, 8 h) of 2.75 ± 0.68.

For CTDSVVKYELMRPSNKAPLLVLCE [EHMT1], the protein stability index is, setting by setting: (treatment: DMSO) 2.02 ± 0.26; (treatment: MLN4924 1 uM, 8 h) 2.22 ± 0.24.

For CVDLTITNLLEGAVAFMPEDITKG [AUP1], the protein stability index (treatment: DMSO) was 2.29 ± 0.2 and the protein stability index (treatment: MLN4924 1 uM, 8 h) is 2.57 ± 0.33.

Regarding CVNYEGQSAYDVADMLKQYFRDLP [DLC1], the protein stability index was 2.54 ± 0.21 (treatment: DMSO) and 2.65 ± 0.32 (treatment: MLN4924 1 uM, 8 h).

Turning to CVTLVWRMPDEDSKIDHYVLEYRR [FSD1], the protein stability index is, setting by setting: (treatment: DMSO) 2.29 ± 0.43; (treatment: MLN4924 1 uM, 8 h) 1.93 ± 0.3.

In the case of CYETLPRGQCLLYNWEEERATNHL [SPAG8], the protein stability index amounted to 2.92 ± 0.16 (treatment: DMSO) and 3.09 ± 0.23 (treatment: MLN4924 1 uM, 8 h).

Take DAEMELRAKEEERLNKLRLESEGS [HACD3]: the protein stability index is 5.56 ± 0.28 (treatment: DMSO) and 5.3 ± 0.24 (treatment: MLN4924 1 uM, 8 h).
